Test results: patent US9345743B2, “Agent for promoting proliferation of bifidobacteria” (MORINAGA MILK INDUSTRY CO., LTD., priority 2011, dated 2016)

Columns and labels:
Assay in all cases: Bifidobacterium proliferation promoting activity, turbidity at 630 nm after 16 h anaerobic culture in MRS medium
Type in all cases: cell-based
Settings in all cases: 37° C.
[1] = tested on: Bifidobacterium breve ATCC 15700
Experimental: (§1) A 9.375 μM aqueous solution of each peptide was adjusted to pH 6.5 with an HCl aqueous solution, and subjected to filtration sterilization using a 0.22-μm membrane. Each peptide solution was diluted with dilution water to obtain 9.375 μM, 3.125 μM, 0.9375 μM, and 0.3125 μM sample solutions. As the dilution water, purified water adjusted to pH 6.5 with an HCl solution and sterilized at 115° C. for 15 minutes was used.
(§2) Bifidobacterium proliferation promoting activities of the aforementioned peptides were evaluated as follows.
(§3) The bifidobacteria used for the experiment were as follows. These strains can be obtained from ATCC (American Type Culture Collection, http://www.atcc.org/). • Bifidobacterium infantis ATCC 15697^T • Bifidobacterium breve ATCC 15700^T • Bifidobacterium bifidum ATCC 29521^T
(§4) A cell suspension of each strain (100 μL) cryopreserved in a 10% skim milk medium was added to the MRS liquid medium (3 mL), and culture was performed at 37° C. for 16 hours under an anaerobic condition. The culture medium (100 μL) was added to the MRS liquid medium (3 mL). The MRS liquid medium was prepared by dissolving Difco Lactobacilli MRS Broth (5.5 g, BD, “Difco” is a registered trademark of Difco Laboratories, Incorporated), and L-cysteine monohydrochloride monohydrate (50 mg, Wako Pure Chemical Industries, Co., Ltd.) in pure water so as to obtain a final volume of 100 mL, adjusting the solution to pH 6.5 with an HCl aqueous solution, and sterilizing the solution at 115° C. for 15 minutes. Further, a concentrated medium containing the components at twofold concentrations was prepared in the same manner as described above, except that Difco Lactobacilli MRS Broth and L-cysteine monohydrochloride monohydrate were used in amounts of 11 g and 100 mg, respectively.
(§5) The aforementioned culture medium was diluted with the MRS liquid medium so as to obtain a turbidity of 0.8 measured at a wavelength of 630 nm. This diluted culture medium was further diluted 100 times with the MRS liquid medium. The obtained diluted culture medium is referred to as 1% diluted culture medium.
(§6) Anaerobic culture was performed at 37° C. for 16 hours in a mixture of 100 μL of the twofold concentrated culture medium, 80 μL of a sample solution or the dilution water, and 20 μL of the 1% diluted culture medium (inoculation volume was 0.1%) or the MRS liquid medium (inoculation volume was 0%) on a 96-well plate (FALCON 353072). The final concentration of the peptide in the mixture was 3.75 μM, 1.25 μM, 0.375 μM, 0.125 μM, or 0 μM.
(§7) After the culture, turbidity of each culture medium was measured at a wavelength of 630 nm, and the proliferation promoting ratio (%) was calculated in accordance with the following equation. Proliferation promoting ratio (%)=(ODS1−ODS0)/(ODC1−ODC0)×100−100
(§8) ODS1: Turbidity observed after culture performed at a sample concentration of 3.75 to 0.125 μM and inoculation volume of 0.1% for 16 hours
(§9) ODS0: Turbidity observed after culture performed at a sample concentration of 3.75 to 0.125 μM and inoculation volume of 0% for 16 hours
(§10) ODC0: Turbidity observed after culture performed at a sample concentration of 0 μM and inoculation volume of 0% for 16 hours
(§11) Bifidobacterium proliferation promoting activities of the aforementioned peptides were evaluated in the same manner as that of Example 1.

[2] = tested on: Bifidobacterium bifidum ATCC 29521
Experimental: as §1, §2, §3, §4, §5, §6, §7, §8, §9, §10, §11

[3] = tested on: Bifidobacterium infantis ATCC 15697
Experimental: as §1, §2, §3, §4, §5, §6, §7, §8, §9, §10, §11

B1: bovine lactoferrin (protein, UniProt P24627 20-708, looked up)
Lactotransferrin: APRKNVRWCTISQPEWFKCRRWQWRMKKLGAPSITCVRRAFALECIRAIAEKKADAVTLDGGMVFEAGRDPYKLRPVAAEIYGTKESPQTHYYAVAVVKKGSNFQLDQLQGRKSCHTGLGRSAGWIIPMGILRPYLSWTESLEPLQGAVAKFFSASCVPCIDRQAYPNLCQLCKGEGENQCACSSREPYFGYSGAFKCLQDGAGDVAFVKETTVFENLPEKADRDQYELLCLNNSRAPVDAFKECHLAQVPSHAVVARSVDGKEDLIWKLLSKAQEKFGKNKSRSFQLFGSPPGQRDLLFKDSALGFLRIPSKVDSALYLGSRYLTTLKNLRETAEEVKARYTRVVWCAVGPEEQKKCQQWSQQSGQNVTCATASTTDDCIVLVLKGEADALNLDGGYIYTAGKCGLVPVLAENRKSSKHSSLDCVLRPTEGYLAVAVVKKANEGLTWNSLKDKKSCHTAVDRTAGWNIPMGLIVNQTGSCAFDEFFSQSCAPGADPKSRLCALCAGDDQGLDKCVPNSKEKYYGYTGAFRCLAEDVGDVAFVKNDTVWENTNGESTADWAKNLNREDFRLLCLDGTRKPVTEAQSCHLAVAPNHAVVSRSDRAAHVKQVLLHQQALFGKNGKNCPDKFCLFKSETKNLLFNDNTECLAKLGGRPTYEEYLGTEYVTAIANLKKCSTSPLLEACAFLTR
[1]; B. breve ATCC 15700, 0.125 μM
  Proliferation promoting ratio (%): 2%
[1]; B. breve ATCC 15700, 0.375 μM
  Proliferation promoting ratio (%): 4%
[1]; B. breve ATCC 15700, 1.25 μM
  Proliferation promoting ratio (%): 8%
[1]; B. breve ATCC 15700, 3.75 μM
  Proliferation promoting ratio (%): 21%
[2]; B. bifidum ATCC 29521, 0.125 μM
  Proliferation promoting ratio (%): 8%
[2]; B. bifidum ATCC 29521, 0.375 μM
  Proliferation promoting ratio (%): 8%
[2]; B. bifidum ATCC 29521, 1.25 μM
  Proliferation promoting ratio (%): 10%
[2]; B. bifidum ATCC 29521, 3.75 μM
  Proliferation promoting ratio (%): 12%
[3]; B. infantis ATCC 15697, 0.125 μM
  Proliferation promoting ratio (%): 1%
[3]; B. infantis ATCC 15697, 0.375 μM
  Proliferation promoting ratio (%): 1%
[3]; B. infantis ATCC 15697, 1.25 μM
  Proliferation promoting ratio (%): 13%
[3]; B. infantis ATCC 15697, 3.75 μM
  Proliferation promoting ratio (%): 23%
